Experimental data taken from US20230071765.

Target: human insulin (disulfide-bonded heterodimer), P01308
Sequence (P01308 whole entry, looked up, one chain of several): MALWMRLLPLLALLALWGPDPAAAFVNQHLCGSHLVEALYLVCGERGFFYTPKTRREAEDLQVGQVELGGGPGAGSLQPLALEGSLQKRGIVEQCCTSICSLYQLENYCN

| Protein | disulfide reduction activity by RP-HPLC (main HIC fraction after drying and reconstitution in saline) | conversion of insulin heterodimer peak (RP-HPLC insulin reduction, 0.025 mM ORP-100, pH 6, 60 min) |
| --- | --- | --- |
| ORP100S (fully monocysteinic human thioredoxin-1, reduced form) (protein) VKQIESKTAFQEALDAAGDKLVVVDFSATWCGPSKMIKPFFHSLSEKYSNVIFLEVDVDDSQDVASESEVKSMPTFQFFKKGQKVGEFSGANKEKLEATINELV | the main fraction showed comparable disulfide reduction activity by DTNB and RP-HPLC to thioredoxin compositions purified without removing the red fraction |  |
| ORP-100 (C35S monocysteinic active site thioredoxin) (protein) VKQIESKTAFQEALDAAGDKLVVVDFSATWCGPSKMIKPFFHSLSEKYSNVIFLEVDVDDCQDVASECEVKCMPTFQFFKKGQKVGEFSGANKEKLEATINELV |  | even at acidic pH 6 ORP-100 is able to markedly reduce the insulin heterodimer peak, and at 1/500 the concentration of NAC |
